In paper PMC8886539:
Several values for one entry are separate records, joined by “and”; a condition that tells them apart may be missing. Equal entries are not always repeated.

What was measured:
[1] = biological target: wt Tag_(131-627) (simian virus 40); assay: SEC; Superdex 200 16/600 column; proteins in solution; data not shown
[2] = biological target: wt Tag_(131-627) (simian virus 40); assay: atomic force microscopy (volume analysis); 500 nM protein (or 250 nM each of M1 and M2) with gapped DNA substrate (48 nt ssDNA at the centre of ~500 bp, 3-5 nM) in 25 mM HEPES-NaOH pH 7.5, 25 mM sodium acetate, 10 mM magnesium acetate, 1 mM ATP, 1 h at room temperature; cross-linked with 0.1% glutaraldehyde; volumes of complexes on the ssDNA stretch
[3] = biological target: DNA polymerase α-primase complex (human) (UniProt P09884)
UniProt P09884, sequence (P09884 whole entry, chain 1 of 4): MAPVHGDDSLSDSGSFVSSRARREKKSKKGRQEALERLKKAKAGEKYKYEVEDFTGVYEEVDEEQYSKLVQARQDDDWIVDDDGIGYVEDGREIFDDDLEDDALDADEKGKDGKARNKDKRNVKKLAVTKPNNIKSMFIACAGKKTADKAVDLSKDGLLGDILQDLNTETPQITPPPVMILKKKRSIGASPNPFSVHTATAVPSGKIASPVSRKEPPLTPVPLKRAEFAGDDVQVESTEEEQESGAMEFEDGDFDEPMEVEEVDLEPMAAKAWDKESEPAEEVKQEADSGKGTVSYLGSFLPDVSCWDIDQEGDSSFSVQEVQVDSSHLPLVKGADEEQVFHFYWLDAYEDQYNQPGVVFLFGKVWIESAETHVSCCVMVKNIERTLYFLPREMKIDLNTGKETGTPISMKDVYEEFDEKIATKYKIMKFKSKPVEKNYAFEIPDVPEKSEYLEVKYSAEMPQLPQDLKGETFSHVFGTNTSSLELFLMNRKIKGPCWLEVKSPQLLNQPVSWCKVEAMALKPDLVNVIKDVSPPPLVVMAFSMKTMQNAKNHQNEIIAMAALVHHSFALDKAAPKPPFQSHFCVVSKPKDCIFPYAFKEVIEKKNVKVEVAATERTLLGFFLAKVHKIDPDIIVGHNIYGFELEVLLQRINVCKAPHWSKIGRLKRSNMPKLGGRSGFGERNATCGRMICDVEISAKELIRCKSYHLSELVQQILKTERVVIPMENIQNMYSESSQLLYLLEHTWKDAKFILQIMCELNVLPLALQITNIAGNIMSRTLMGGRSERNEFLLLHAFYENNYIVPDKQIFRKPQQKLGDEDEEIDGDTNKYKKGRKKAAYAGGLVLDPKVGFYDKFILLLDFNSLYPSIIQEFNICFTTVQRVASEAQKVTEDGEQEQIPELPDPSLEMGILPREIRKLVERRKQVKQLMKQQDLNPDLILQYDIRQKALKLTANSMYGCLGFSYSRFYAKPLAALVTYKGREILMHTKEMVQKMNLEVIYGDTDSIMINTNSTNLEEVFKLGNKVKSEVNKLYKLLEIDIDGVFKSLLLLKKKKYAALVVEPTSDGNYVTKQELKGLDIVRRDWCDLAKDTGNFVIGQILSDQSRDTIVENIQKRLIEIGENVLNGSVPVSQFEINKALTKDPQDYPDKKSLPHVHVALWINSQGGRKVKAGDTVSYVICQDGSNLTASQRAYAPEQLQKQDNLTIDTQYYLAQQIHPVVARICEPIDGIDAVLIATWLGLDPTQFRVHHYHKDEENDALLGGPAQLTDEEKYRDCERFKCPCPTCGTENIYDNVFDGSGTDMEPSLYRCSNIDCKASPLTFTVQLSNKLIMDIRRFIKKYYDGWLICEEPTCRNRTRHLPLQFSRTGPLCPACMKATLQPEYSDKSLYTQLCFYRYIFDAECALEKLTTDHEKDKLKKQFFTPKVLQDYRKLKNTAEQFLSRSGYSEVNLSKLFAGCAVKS
UniProt P09884, sequence (Q14181 whole entry, chain 2 of 4, further chain): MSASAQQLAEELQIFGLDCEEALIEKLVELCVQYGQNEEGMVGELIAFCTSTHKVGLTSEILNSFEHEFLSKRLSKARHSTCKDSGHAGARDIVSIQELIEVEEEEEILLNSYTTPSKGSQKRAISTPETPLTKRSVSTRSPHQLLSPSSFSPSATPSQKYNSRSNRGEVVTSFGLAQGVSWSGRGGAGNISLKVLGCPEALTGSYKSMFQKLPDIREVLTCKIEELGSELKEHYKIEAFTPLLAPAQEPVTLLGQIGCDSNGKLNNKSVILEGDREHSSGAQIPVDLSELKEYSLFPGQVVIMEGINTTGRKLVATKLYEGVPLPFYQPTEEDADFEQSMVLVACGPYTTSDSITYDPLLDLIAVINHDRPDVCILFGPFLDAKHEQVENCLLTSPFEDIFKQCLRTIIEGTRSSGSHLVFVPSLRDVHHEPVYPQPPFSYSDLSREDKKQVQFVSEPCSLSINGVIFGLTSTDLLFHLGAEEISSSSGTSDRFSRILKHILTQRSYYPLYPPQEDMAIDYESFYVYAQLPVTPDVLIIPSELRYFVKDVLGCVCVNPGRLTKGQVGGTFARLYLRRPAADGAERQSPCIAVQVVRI
UniProt P09884, sequence (P49643 whole entry, chain 3 of 4, further chain): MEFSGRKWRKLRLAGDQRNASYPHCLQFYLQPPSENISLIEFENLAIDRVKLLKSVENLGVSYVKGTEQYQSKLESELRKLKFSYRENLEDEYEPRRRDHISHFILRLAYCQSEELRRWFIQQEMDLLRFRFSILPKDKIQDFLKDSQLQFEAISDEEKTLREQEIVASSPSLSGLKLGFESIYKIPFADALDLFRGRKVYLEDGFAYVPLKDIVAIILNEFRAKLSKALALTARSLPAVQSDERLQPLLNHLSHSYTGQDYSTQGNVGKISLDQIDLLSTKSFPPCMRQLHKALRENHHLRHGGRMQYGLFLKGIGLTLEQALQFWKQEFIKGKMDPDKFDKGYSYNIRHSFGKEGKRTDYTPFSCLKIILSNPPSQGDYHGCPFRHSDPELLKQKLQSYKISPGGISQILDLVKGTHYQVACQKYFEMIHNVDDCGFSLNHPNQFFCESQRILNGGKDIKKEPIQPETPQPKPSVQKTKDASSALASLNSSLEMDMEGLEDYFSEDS
UniProt P09884, sequence (P49642 whole entry, chain 4 of 4, further chain): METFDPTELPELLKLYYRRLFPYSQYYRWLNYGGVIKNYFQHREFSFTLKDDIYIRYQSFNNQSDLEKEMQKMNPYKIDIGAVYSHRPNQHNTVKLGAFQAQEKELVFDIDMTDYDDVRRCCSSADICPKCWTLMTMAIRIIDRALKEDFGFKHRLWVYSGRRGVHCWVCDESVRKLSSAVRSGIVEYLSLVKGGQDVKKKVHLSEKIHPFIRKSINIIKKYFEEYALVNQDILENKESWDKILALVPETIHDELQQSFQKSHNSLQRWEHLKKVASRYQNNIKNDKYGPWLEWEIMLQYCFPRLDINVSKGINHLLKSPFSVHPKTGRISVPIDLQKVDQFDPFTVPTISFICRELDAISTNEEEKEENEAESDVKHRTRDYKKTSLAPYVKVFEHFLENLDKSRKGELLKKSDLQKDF

[4] = biological target: DNA polymerase α-primase complex (human) (UniProt P09884); remark: listed apart in the source
[5] = biological target: full-length SV40 T antigen Tag_(1-708) (simian virus 40) (UniProt P03070); assay: atomic force microscopy (volume analysis); 500 nM protein (or 250 nM each of M1 and M2) with gapped DNA substrate (48 nt ssDNA at the centre of ~500 bp, 3-5 nM) in 25 mM HEPES-NaOH pH 7.5, 25 mM sodium acetate, 10 mM magnesium acetate, 1 mM ATP, 1 h at room temperature; cross-linked with 0.1% glutaraldehyde; volumes of complexes on the ssDNA stretch

For wt Tag_(131-627) (domain or fragment), the stoichiometry N [1] was 6, the stoichiometry N [2] was 6 and 12 and the primase-initiated DNA synthesis (dNMP incorporation) by Pol-prim on ΦΧ174 ssDNA, 0.3 and 0.6 µg Tag variant, inhibition against Pol-prim alone [3] was 96 % inhibition.
Substance “full-length SV40 T antigen Tag_(1-708) (from UniProt P03070 1-708) (natural protein)” has a primase-initiated DNA synthesis (dNMP incorporation) by Pol-prim on RPA-bound ssDNA (0.5 µg RPA), 0.3 and 0.6 µg Tag, stimulation against RPA without Tag [4] of 11.5 fold and a stoichiometry N [5] of 2.
For “Tag_(131-627)(V350E/P417D) (domain or fragment)”, the primase-initiated DNA synthesis (dNMP incorporation) by Pol-prim on ΦΧ174 ssDNA, 0.3 and 0.6 µg Tag variant, reduction against Pol-prim alone [3] was 65 % reduction.
In the case of “Tag_(131-627)(L286D/R567E) (domain or fragment)”, the primase-initiated DNA synthesis (dNMP incorporation) by Pol-prim on RPA-bound ssDNA (0.5 µg RPA), 0.3 and 0.6 µg Tag variant, stimulation against RPA without Tag [4] was 10.4 fold and the primase-initiated DNA synthesis (dNMP incorporation) by Pol-prim on ΦΧ174 ssDNA, 0.3 and 0.6 µg Tag variant, stimulation against Pol-prim alone [3] was 4 fold.
